Measurements reported in patent US7910550B2, “Human kunitz-type inhibitor with enhanced antifibrinolytic activity” (STC.UNM, priority 2004, dated 2011).

Key:
[1] = tested on: human umbilical vein endothelial cells (HUVECs); test: In vitro human endothelial cell angiogenesis assay (capillary tube formation on ECMATRIX); type: cell-based; details: for inhibition of angiogenesis (capillary-like tube formation): HUVECs on matrix
Source text: The angiogenesis assay is commercially available from Chemicon International, Inc. (Temecula, Calif.), and involves growing human umbilical vein endothelial cells (HUVECs) on a proprietary matrix, followed by assessing angiogenesis on this matrix by counting new branch points in sprouting endothelial cells.
A semi-quantitative assay for in vitro angiogenesis was utilized. Human umbilical vein endothelial cells (HUVEC, Clonetics Corp., Walkersville, Md.) were maintained in 25 cm^2 flasks in EGM-2 media (Clonetics Corp.) supplemented with 2% fetal bovine serum, gentamicin, amphotericin-B, hEGF, hydrocortisone, VEGF, hFGF-B, R^3-IGF-1, ascorbic acid and heparin. For assay, a 48-well tissue culture plate was coated with 100 μl of ECMATRIX (Chemicon International, Inc., Temecula, Calif.) followed by incubation at 37° C. for one hour. Approximately 5×10^4 cells were then seeded onto the surface of the polymerized matrix. Varying concentrations of full-length human TFPI-2, diluted in EGM-2 media and filtered, were added to the wells and plate was placed in 37° C.-humidified CO2 incubator. Each treatment was performed in duplicate wells. Separately, VEGF was used as a positive control. The three-dimensional organization of cells was examined every hour under an inverted photomicroscope. The capillary tube branch point formation was counted in each well following eight hours of incubation. For each concentration, eight randomly chosen areas under 250× magnified field were observed. The results are expressed as number of branching points (mean±SEM) and the differences between each mean value was tested by one way analysis of variance (ANOVA). Statistically p-value <0.05 was accepted.
To examine the effect of full-length human TFPI-2 on morphogenesis (capillary-like tube formation) of endothelial cells, HUVECs were seeded on the matrigel and treated with full-length human TFPI-2 (0.2 μM-5 μM).

HT-1080 cells = test: Gene expression by Oligo GEARRAY Human Apoptosis Microarray; type: cell-based
Procedure: To study the gene expression profiles of proteins involved in apoptosis, approximately 2×10^7 cells were grown to confluence and treated with either recombinant R24K KD1 or vehicle for 24 hours and 48 hours. After the treatment, the cells were harvested and total RNA was purified using the RNEASY RNA extraction kit according to the manufacturer's instruction. The purified RNA samples were further digested using an on-column DNase digestion with RNase-free DNase-I to ensure complete removal of any contaminating genomic or mitochondrial DNA. The pathway-specific microarray was carried out using 3 μg of total RNA to generate biotin-labeled cRNA using TRUELABELING-AMP from SABiosciences Corp. (Frederick, Md.). TRUELABELING-AMP 2.0 from (SABiosciences Corp., Frederick, Md.) was used to rapidly amplify and label antisense RNA for hybridization. Three micrograms of labeled cRNA was used for hybridization with an Oligo GEARRAY Human Apoptosis Microarray consisting of 112 genes. Following incubation with CDP-STAR, the chemiluminescent array image was captured by a cooled CCD camera (Alpha Innotech Corp., San Leandro, Calif.). All images were saved as electronic files in a grayscale, 8 or 16 bit TIFF file format and analyzed using a GEARRAY Expression Analysis Suite. Data were normalized using minimum value background subtraction and interquartile normalization. Minimum value is the lowest density spot on the array and the average across the spot was used as the background correction value and is subtracted from the intensity value for each spot on the array. Interquartile uses only genes between the 25% and 75% quartile and the average intensity value of these spots is used for normalization of all the genes (intensity value of each gene is divided by this mean intensity value). The pUC19 plasmid was used as the negative control in the array.

B1: TFPI-2: Human tissue factor pathway inhibitor-2, 213 amino acid polypeptide with three tandem Kunitz-type domains (SEQ ID NO:1) (protein, listed as Homo sapiens)
chain: DAAQEPTGNNAEICLLPLDYGPCRALLLRYYYDRYTQSCRQFLYGGCEGNANNFYTWEACDDACWRIEKVPKVCRLQVSVDDQCEGSTEKYFFNLSSMTCEKFFSGGCHRNRIENRFPDEATCMGFCAPKKIPSFCYSPKDEGLCSANVTRYYFNPRYRTCDAFTYTGCGGNDNNFVSREDCKRACAKALKKKKKMPKLRFASRIRKIRKKQF
- capillary-like tube formation ([1]; 5 μM, overnight incubation): no complete tube formation even after overnight incubation
- inhibition of angiogenesis (capillary-like tube formation) [1]: significantly inhibited the capillary-like tube formation of HUVECs in a dose-dependent manner
- inhibition of angiogenesis (capillary-like tube formation) ([1]; listed as wild-type TFPI-2): inhibit angiogenesis

B2: R24K KD1: KD1 with lysine in place of arginine at position 24 (SEQ ID NO:3) (protein)
chain: DAAQEPTGNNAEICLLPLDYGPCKALLLRYYYDRYTQSCRQFLYGGCEGNANNFYTWEACDDACWRIEKVPKV
modifications: mutated active domain
- Fold change BAG3, Group 2 vs. Group 1 (HT-1080 cells; Group 2 vs. Group 1): 0.60 fold
- Fold change BAK1, Group 2 vs. Group 1 (HT-1080 cells; Group 2 vs. Group 1): 1.78 fold
- Fold change BAX, Group 2 vs. Group 1 (HT-1080 cells; Group 2 vs. Group 1): 3.09 fold
- Fold change BCL2, Group 2 vs. Group 1 (HT-1080 cells; Group 2 vs. Group 1): 0.65 fold
- Fold change BCL2A1, Group 2 vs. Group 1 (HT-1080 cells; Group 2 vs. Group 1): 2.02 fold
- Fold change BCLAF1, Group 2 vs. Group 1 (HT-1080 cells; Group 2 vs. Group 1): 0.74 fold
- Fold change BFAR, Group 2 vs. Group 1 (HT-1080 cells; Group 2 vs. Group 1): 0.34 fold
- Fold change BNIP3, Group 2 vs. Group 1 (HT-1080 cells; Group 2 vs. Group 1): 1.71 fold
- Fold change CARD6, Group 2 vs. Group 1 (HT-1080 cells; Group 2 vs. Group 1): 2.31 fold
- Fold change CARD11, Group 2 vs. Group 1 (HT-1080 cells; Group 2 vs. Group 1): 1.54 fold
- Fold change CASP4, Group 2 vs. Group 1 (HT-1080 cells; Group 2 vs. Group 1): 1.18 fold
- Fold change CASP9, Group 2 vs. Group 1 (HT-1080 cells; Group 2 vs. Group 1): 1.50 fold
- Fold change CD40, Group 2 vs. Group 1 (HT-1080 cells; Group 2 vs. Group 1): 4.74 fold
- Fold change CIDEB, Group 2 vs. Group 1 (HT-1080 cells; Group 2 vs. Group 1): 2.25 fold
- Fold change GADD45A, Group 2 vs. Group 1 (HT-1080 cells; Group 2 vs. Group 1): 1.88 fold
- Fold change LTA, Group 2 vs. Group 1 (HT-1080 cells; Group 2 vs. Group 1): 75.31 fold
- Fold change LTBR, Group 2 vs. Group 1 (HT-1080 cells; Group 2 vs. Group 1): 1.38 fold
- Fold change MCL1, Group 2 vs. Group 1 (HT-1080 cells; Group 2 vs. Group 1): 1.46 fold
- Fold change TNFRSF1B, Group 2 vs. Group 1 (HT-1080 cells; Group 2 vs. Group 1): 1.59 fold
- Fold change TNFRSF10B, Group 2 vs. Group 1 (HT-1080 cells; Group 2 vs. Group 1): 1.68 fold
- Fold change TNFRSF25, Group 2 vs. Group 1 (HT-1080 cells; Group 2 vs. Group 1): 1.27 fold
- Fold change TRADD, Group 2 vs. Group 1 (HT-1080 cells; Group 2 vs. Group 1): 1.92 fold
- Fold change TRAF4, Group 2 vs. Group 1 (HT-1080 cells; Group 2 vs. Group 1): 3.79 fold
- Fold change BAG3, Group 3 vs. Group 1 (HT-1080 cells; Group 3 vs. Group 1): 0.44 fold
- Fold change BAK1, Group 3 vs. Group 1 (HT-1080 cells; Group 3 vs. Group 1): 1.74 fold
- Fold change BAX, Group 3 vs. Group 1 (HT-1080 cells; Group 3 vs. Group 1): 3.97 fold
- Fold change BCL2, Group 3 vs. Group 1 (HT-1080 cells; Group 3 vs. Group 1): 0.12 fold
- Fold change BCL2A1, Group 3 vs. Group 1 (HT-1080 cells; Group 3 vs. Group 1): 2.09 fold
- Fold change BCL2L13, Group 3 vs. Group 1 (HT-1080 cells; Group 3 vs. Group 1): 1.61 fold
- Fold change BCLAF1, Group 3 vs. Group 1 (HT-1080 cells; Group 3 vs. Group 1): 0.41 fold
- Fold change BFAR, Group 3 vs. Group 1 (HT-1080 cells; Group 3 vs. Group 1): 0.25 fold
- Fold change BNIP3, Group 3 vs. Group 1 (HT-1080 cells; Group 3 vs. Group 1): 1.69 fold
- Fold change CARD6, Group 3 vs. Group 1 (HT-1080 cells; Group 3 vs. Group 1): 3.62 fold
- Fold change CARD11, Group 3 vs. Group 1 (HT-1080 cells; Group 3 vs. Group 1): 4.36 fold
- Fold change CASP4, Group 3 vs. Group 1 (HT-1080 cells; Group 3 vs. Group 1): 2.28 fold
- Fold change CASP9, Group 3 vs. Group 1 (HT-1080 cells; Group 3 vs. Group 1): 3.22 fold
- Fold change CD40, Group 3 vs. Group 1 (HT-1080 cells; Group 3 vs. Group 1): 63.39 fold
- Fold change CIDEB, Group 3 vs. Group 1 (HT-1080 cells; Group 3 vs. Group 1): 1.77 fold
- Fold change GADD45A, Group 3 vs. Group 1 (HT-1080 cells; Group 3 vs. Group 1): 5.56 fold
- Fold change LTA, Group 3 vs. Group 1 (HT-1080 cells; Group 3 vs. Group 1): 15.94 fold
- Fold change LTBR, Group 3 vs. Group 1 (HT-1080 cells; Group 3 vs. Group 1): 1.88 fold
- Fold change MCL1, Group 3 vs. Group 1 (HT-1080 cells; Group 3 vs. Group 1): 2.20 fold
- Fold change TNFRSF1B, Group 3 vs. Group 1 (HT-1080 cells; Group 3 vs. Group 1): 2.10 fold
- Fold change TNFRSF10B, Group 3 vs. Group 1 (HT-1080 cells; Group 3 vs. Group 1): 1.71 fold
- Fold change TNFRSF25, Group 3 vs. Group 1 (HT-1080 cells; Group 3 vs. Group 1): 2.08 fold
- Fold change TRADD, Group 3 vs. Group 1 (HT-1080 cells; Group 3 vs. Group 1): 2.07 fold
- Fold change TRAF4, Group 3 vs. Group 1 (HT-1080 cells; Group 3 vs. Group 1): 4.05 fold
